Experimental data: PMC7264359, “AcrIF9 tethers non-sequence specific dsDNA to the CRISPR RNA-guided surveillance complex” (Nature Communications, 2020)

What was measured:
[1] = target: type I-F CRISPR RNA-guided surveillance complex (Csy) (Pseudomonas aeruginosa) (UniProt Q02ML9); experiment: cryo-EM structure; Csy–AcrIF9 complex co-expressed in E. coli and co-purified (Ni-NTA, Superdex 200 in 20 mM HEPES pH 7.5, 100 mM NaCl, 5% glycerol, 1 mM TCEP); nominal resolution ~3.9 Å
[2] = target: the molecule itself; experiment: as above

Sequence of type I-F CRISPR RNA-guided surveillance complex (Csy) (Pseudomonas aeruginosa) (Q02ML9 whole entry, chain 1 of 3): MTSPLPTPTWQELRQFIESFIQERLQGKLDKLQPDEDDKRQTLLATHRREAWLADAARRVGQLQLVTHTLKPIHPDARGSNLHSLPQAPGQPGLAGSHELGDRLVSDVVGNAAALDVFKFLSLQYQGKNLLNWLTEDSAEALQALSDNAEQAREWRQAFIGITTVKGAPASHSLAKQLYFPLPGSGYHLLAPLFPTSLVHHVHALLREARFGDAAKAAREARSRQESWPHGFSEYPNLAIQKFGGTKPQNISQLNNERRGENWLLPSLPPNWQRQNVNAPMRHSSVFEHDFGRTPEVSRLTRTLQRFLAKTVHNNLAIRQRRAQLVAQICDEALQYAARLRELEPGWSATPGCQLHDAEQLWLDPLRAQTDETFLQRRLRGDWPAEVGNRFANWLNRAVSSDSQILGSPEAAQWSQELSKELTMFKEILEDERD
Sequence of type I-F CRISPR RNA-guided surveillance complex (Csy) (Pseudomonas aeruginosa) (Q02MM0 whole entry, chain 2 of 3, further chain): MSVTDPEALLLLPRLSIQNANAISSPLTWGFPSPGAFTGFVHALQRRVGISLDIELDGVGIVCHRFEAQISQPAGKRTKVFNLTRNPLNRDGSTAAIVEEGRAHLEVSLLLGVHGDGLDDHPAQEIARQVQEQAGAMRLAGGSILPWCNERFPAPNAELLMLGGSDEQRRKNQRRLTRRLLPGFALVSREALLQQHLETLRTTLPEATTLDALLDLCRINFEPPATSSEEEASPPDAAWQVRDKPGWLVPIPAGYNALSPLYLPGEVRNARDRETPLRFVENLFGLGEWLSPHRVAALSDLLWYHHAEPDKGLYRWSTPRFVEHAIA
Sequence of type I-F CRISPR RNA-guided surveillance complex (Csy) (Pseudomonas aeruginosa) (Q02MM2 whole entry, chain 4 of 3, further chain): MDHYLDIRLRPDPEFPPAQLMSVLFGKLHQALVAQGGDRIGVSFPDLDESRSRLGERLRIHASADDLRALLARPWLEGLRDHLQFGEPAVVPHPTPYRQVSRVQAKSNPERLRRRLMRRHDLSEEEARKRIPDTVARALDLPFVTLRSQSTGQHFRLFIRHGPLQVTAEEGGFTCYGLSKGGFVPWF

| Molecule | stoichiometry N [1] | stoichiometry N [2] |
| --- | --- | --- |
| anti-CRISPR protein IF9 (AcrIF9), co-expressed with Csy (natural protein) | 2 | – |
| Cas7f (natural protein, Pseudomonas aeruginosa, Cas7f, backbone subunit of the type I-F Csy complex of Pseudomonas aeruginosa; Stood in the assay as a subunit of the Csy complex (six copies along the crRNA); also called Cas7.4f; Cas7.6f; source: E. coli BL21 (DE3), co-expressed with the other Csy genes, a synthetic CRISPR and AcrIF9; purified within the complex (Ni-NTA, Superdex 200)) SKPILSTASVLAFERKLDPSDALMSAGAWAQRDASQEWPAVTVREKSVRGTISNRLKTKDRDPAKLDASIQSPNLQTVDVANLPSDADTLKVRFTLRVLGGAGTPSACNDAAYRDKLLQTVATYVNDQGFAELARRYAHNLANARFLWRNRVGAEAVEVRINHIRQGEVARAWRFDALAIGLRDFKADAELDALAELIASGLSGSGHVLLEVVAFARIGDGQEVFPSQELILDKGDKKGQKSKTLYSVRDAAAIHSQKIGNALRTIDTWYPDEDGLGPIAVEPYGSVTSQGKAYRQPKQKLDFYTLLDNWVLRDEAPAVEQQHYVIANLIRGGVFGEAEEK | – | 6 |
